B1: WT knottin 2.5F-Fc fusion protein (rEETI 2.5F) (Fc fusion)
chain: GCPRPRGDNPPLTCSQDSDCLAGCVCGPNGFCG
modifications: ends and bridges not checked; also: C-terminal His tag on knottin, fused at C-terminus to human IgG Fc, Fc fusion dimer
notes: The order of His tag and Fc is read from 'c-terminal his-tagged ... fused at the c-terminus to the Fc fragment'; also called WT 2.5F; WT rEETI 2.5F; not shown: C-terminal His tag of the knottin; Fc fragment of human IgG
B2: modified knottin 2.5F M1, Fc fusion (Fc fusion)
chain: B1 chain with N9W, P10N
modifications: ends and bridges not checked; also: C-terminal His tag, number of His and linker not given here, fused at C-terminus to Fc fragment of human IgG
notes: Made by site-directed mutagenesis of the WT rEETI 2.5F construct; tested as culture supernatant; not shown: C-terminal His tag of the knottin; Fc fragment of human IgG
B3: modified knottin 2.5F M, Fc fusion (Fc fusion)
chain: B1 chain with N9W, P10N, P11E, L12G
modifications: ends and bridges not checked; also: C-terminal His tag, number of His and linker not given here, fused at C-terminus to Fc fragment of human IgG
notes: as for B2
B4: wild-type integrin αVβ3 on cells (K562-αVβ3, M21, HEK293T) (receptor)
chain 1: FNLDVDSPAEYSGPEGSYFGFAVDFFVPSASSRMFLLVGAPKANTTQPGIVEGGQVLKCDWSSTRRCQPIEFDATGNRDYAKDDPLEFKSHQWFGASVRSKQDKILACAPLYHWRTEMKQEREPVGTCFLQDGTKTVEYAPCRSQDIDADGQGFCQGGFSIDFTKADRVLLGGPGSFYWQGQLISDQVAEIVSKYDPNVYSIKYNNQLATRTAQAIFDDSYLGYSVAVGDFNGDGIDDFVSGVPRAARTLGMVYIYDGKNMSSLYNFTGEQMAAYFGFSVAATDINGDDYADVFIGAPLFMDRGSDGKLQEVGQVSVSLQRASGDFQTTKLNGFEVFARFGSAIAPLGDLDQDGFNDIAIAAPYGGEDKKGIVYIFNGRSTGLNAVPSQILEGQWAARSMPPSFGYSMKGATDIDKNGYPDLIVGAFGVDRAILYRARPVITVNAGLEVYPSILNQDNKTCSLPGTALKVSCFNVRFCLKADGKGVLPRKLNFQVELLLDKLKQKGAIRRALFLYSRSPSHSKNMTISRGGLMQCEELIAYLRDESEFRDKLTPITIFMEYRLDYRTAADTTGLQPILNQFTPANISRQAHILLDCGEDNVCKPKLEVSVDSDQKKIYIGDDNPLTLIVKAQNQGEGAYEAELIVSIPLQADFIGVVRNNEALARLSCAFKTENQTRQVVCDLGNPMKAGTQLLAGLRFSVHQQSEMDTSVKFDLQIQSSNLFDKVSPVVSHKVDLAVLAAVEIRGVSSPDHIFLPIPNWEHKENPETEEDVGPVVQHIYELRNNGPSSFSKAMLHLQWPYKYNNNTLLYILHYDIDGPMNCTSDMEINPLRIKISSLQTTEKNDTVAGQGERDHLITKRDLALSEGDIHTLGCGVAQCLKIVCQVGRLDRGKSAILYVKSLLWTETFMNKENQNHSYSLKSSASFNVIEFPYKNLPIEDITNSTLVTTNVTWGIQPAPMPVPVWVIILAVLAGLLLLAVLVFVMYRMGFFKRVRPPQEEQEREQLQPHENGEGNSET
chain 2: GPNICTTRGVSSCQQCLAVSPMCAWCSDEALPLGSPRCDLKENLLKDNCAPESIEFPVSEARVLEDRPLSDKGSGDSSQVTQVSPQRIALRLRPDDSKNFSIQVRQVEDYPVDIYYLMDLSYSMKDDLWSIQNLGTKLATQMRKLTSNLRIGFGAFVDKPVSPYMYISPPEALENPCYDMKTTCLPMFGYKHVLTLTDQVTRFNEEVKKQSVSRNRDAPEGGFDAIMQATVCDEKIGWRNDASHLLVFTTDAKTHIALDGRLAGIVQPNDGQCHVGSDNHYSASTTMDYPSLGLMTEKLSQKNINLIFAVTENVVNLYQNYSELIPGTTVGVLSMDSSNVLQLIVDAYGKIRSKVELEVRDLPEELSLSFNATCLNNEVIPGLKSCMGLKIGDTVSFSIEAKVRGCPQEKEKSFTIKPVGFKDSLIVQVTFDCDCACQAQAEPNSHRCNNGNGTFECGVCRCGPGWLGSQCECSEEDYRPSQQDECSPREGQPVCSQRGECLCGQCVCHSSDFGKITGKYCECDDFSCVRYKGEMCSGHGQCSCGDCLCDSDWTGYYCNCTTRTDTCMSSNGLLCSGRGKCECGSCVCIQPGSYGDTCEKCPTCPDACTFKKECVECKKFDREPYMTENTCNRYCRDEIESVKELKDTGKDAVNCTYKNEDDCVVRFQYYEDSSGKSILYVVEEPECPKGPDILVVLLSVMGAILLIGLAALLIWKLLITIHDRKEFAKFEEERARAKWDTANNPLYKEATSTFTNITYRGT
notes: also called WT αVβ3; cellular αVβ3
B5: hFN10/B (designed binder)
chain: SDVPRDLEVVAATPTSLLISWDAPAVTVRYYRITYGETGGNSPVQEFTVPGSKSTATISGLKPGVDYTITVYAVIARGDWNDGSKPISINY
notes: hFN10 with the three residues flanking RGDWN changed to match barbourin; His tag as for hFN10

Numbering of substitutions follows the chain as printed. No end group written: not given here.

Test [1] has as its target B4. The test can be described thus: flow cytometry on K562-αVβ3, culture supernatant, fluoresceinated anti-human Fc mAb, Ca2+/Mg2+. The method, then:
(§1) Binding of soluble knottin dimers to αVβ3-K562 cells was expressed as mean fluorescence intensity (MFI), as determined using FlowJo software. […] Alexa647-labeled mAb AP5 Fab (10 μg/ml) was added, and cells incubated for an additional 30 min before washing. APC-labeled goat anti-mouse Fc-specific antibody was added to anti-LIBS-1- or anti-LIBS-6-bound M21 cells for an additional 30 min at 4° C. Cells were then washed, resuspended, fixed in 4% paraformaldehyde and analyzed by flow cytometry. AP5 epitope expression was measured and expressed as MFI.
as §1, with “Cells were washed, resuspended, fixed in 4% paraformaldehyde, and analyzed using FACSCalibur or BD-LSRII flow cytometers (BD Biosciences). Binding” for “Binding”, “Fe-specific” for “Fc-specific”
In general terms: In flow cytometry, cells or beads pass a laser one at a time.

In test [2] the target is T1, wild-type 10th type-III RGD-domain of human fibronectin (wtFN10) (human, UniProt P02751 1539-1631).
T1 construct: Expressed in bacteria with an N-terminal His tag (S1417-T1509) and a thrombin cleavage site; also called wild-type FN10
The test can be described thus: M21 cells, unlabeled FN10, AP5 read-out by flow cytometry. The method, then:
(§2) K562-αVβ3 cells, transiently transfected HEK293T or αVβ3⁺ M21 cells (0.5×10⁶ in 100 μl WB) were incubated in the absence or presence of unlabeled soluble FN10 (5 μg) in Ca²⁺/Mg²⁺ or in Mn²⁺ (30 min; at 25° C.). Alexa647-labeled AP5 Fab (plus Alexa488-labeled AP3, when HEK293T cells were used), unlabeled anti-LIBS-1 (all to 10 μg/ml) or LIBS-6 ascites (to 1:50 dilution) were added, and the cells incubated for an additional 30 min before washing. APC-labeled goat anti-mouse Fc-specific antibody was added to anti-LIBS-1- or anti-LIBS-6-bound M21 cells, cells were incubated for an additional 30 min at 4° C. then washed, resuspended, fixed in 4% paraformaldehyde and analyzed by flow cytometry. LIBS epitope expression was measured and expressed as MFI (in case of K562-αVβ3 or M21 cells) and normalized (in case of HEK293T cells) by dividing its MFI by the MFI for Alexa488-labeled AP3, and multiplied by 100.

In test [3] the target is B4. Described as above. As for the experimental part:
as §2

As for B1, the binding result in test [1] is given as “binds”. On the same count and under the same terms, to B2 belongs “binds”. Turning to B3, in test [1], the binding result is given as “binds”. B4: the binding result in test [2] is recorded as “binds”. As to B5, the binding result in test [3] is “binds”.

The values above are taken from patent US20170044236A1 (GENERAL HOSPITAL, published 2017).
